Data as given in article PMC6049616.

Target: semiSWEET
Assay: native MS

## semiSWEET (natural protein)
  stoichiometry N: 2
